Assay results taken from paper PMC9482650, “Quantitative fragmentomics allow affinity mapping of interactomes” (Nature Communications, 2022).

T1: PCLO, Q9Y6V0
T1 sequence (Q9Y6V0 4491-4600, limits assumed, looked up): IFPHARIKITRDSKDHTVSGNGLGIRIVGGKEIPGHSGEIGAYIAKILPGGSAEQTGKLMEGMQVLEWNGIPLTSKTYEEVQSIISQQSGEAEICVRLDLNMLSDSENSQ

T2: LIN7A, O14910
T2 sequence (O14910 103-200, limits assumed, looked up): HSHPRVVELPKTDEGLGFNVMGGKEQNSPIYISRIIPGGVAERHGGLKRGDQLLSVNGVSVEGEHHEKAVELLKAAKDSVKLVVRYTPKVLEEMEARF

T3: DFNB31_2, Q9P202
T3 sequence (Q9P202 274-371, limits assumed, looked up): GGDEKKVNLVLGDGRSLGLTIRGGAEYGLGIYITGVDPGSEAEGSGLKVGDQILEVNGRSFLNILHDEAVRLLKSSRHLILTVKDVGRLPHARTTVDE

T4: MPDZ_10, O75970
T4 sequence (O75970 1624-1722, limits assumed, looked up): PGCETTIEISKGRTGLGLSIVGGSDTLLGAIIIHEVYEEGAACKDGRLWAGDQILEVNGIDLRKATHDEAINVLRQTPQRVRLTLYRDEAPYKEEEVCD

T5: GRIP1_7, Q9Y3R0
T5 sequence (Q9Y3R0 999-1096, limits assumed, looked up): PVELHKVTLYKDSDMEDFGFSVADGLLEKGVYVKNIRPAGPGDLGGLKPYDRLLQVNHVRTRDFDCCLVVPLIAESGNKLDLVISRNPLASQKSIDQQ

T6: TX1BP3, O14907
T6 sequence (O14907 10-122, limits assumed, looked up): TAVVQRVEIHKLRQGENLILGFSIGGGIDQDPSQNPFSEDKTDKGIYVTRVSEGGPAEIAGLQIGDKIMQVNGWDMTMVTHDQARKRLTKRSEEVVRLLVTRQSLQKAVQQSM

T7: HTRA4, P83105
T7 sequence (P83105 378-476, limits assumed, looked up): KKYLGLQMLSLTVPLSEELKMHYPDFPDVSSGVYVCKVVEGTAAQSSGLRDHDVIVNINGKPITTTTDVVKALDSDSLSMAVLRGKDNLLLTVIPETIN

T8: APBA2_2, Q99767
T8 sequence (Q99767 654-744, limits assumed, looked up): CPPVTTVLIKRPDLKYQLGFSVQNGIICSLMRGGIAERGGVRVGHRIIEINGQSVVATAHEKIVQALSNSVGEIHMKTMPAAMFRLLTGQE

T9: MPP2, Q14168
T9 sequence (Q14168 180-250, limits assumed, looked up): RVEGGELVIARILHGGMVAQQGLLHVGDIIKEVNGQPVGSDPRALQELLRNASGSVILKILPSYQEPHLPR

T10: RADIL, Q96JH8
T10 sequence (Q96JH8 971-1071, limits assumed, looked up): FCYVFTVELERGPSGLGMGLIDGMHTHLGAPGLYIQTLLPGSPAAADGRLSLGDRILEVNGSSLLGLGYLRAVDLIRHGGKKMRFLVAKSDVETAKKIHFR

T11: LNX2_2, Q8N448
T11 sequence (Q8N448 334-432, limits assumed, looked up): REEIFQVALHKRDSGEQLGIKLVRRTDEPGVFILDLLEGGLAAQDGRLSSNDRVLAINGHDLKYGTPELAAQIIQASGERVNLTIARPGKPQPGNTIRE

T12: NHERF3_4, Q5T2W1
T12 sequence (Q5T2W1 373-468, limits assumed, looked up): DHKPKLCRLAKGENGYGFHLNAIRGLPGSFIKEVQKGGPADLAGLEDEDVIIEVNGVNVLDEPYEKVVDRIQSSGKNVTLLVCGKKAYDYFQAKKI


Tests used:
Test in all cases: holdup assay
Parameters in all cases: key: below the threshold = too weak to quantify, mostly under pKd 3.1 to 4
Conditions in all cases: plain residues with an end cap or a label only (N-terminal biotin on a linker: ado-ado)
[1] = target: T1, PCLO, Q9Y6V0
[2] = target: T2, LIN7A, O14910
[3] = target: Inadl_8, Q8NI35
Sequence of Inadl_8, Q8NI35 (Q8NI35 1425-1530): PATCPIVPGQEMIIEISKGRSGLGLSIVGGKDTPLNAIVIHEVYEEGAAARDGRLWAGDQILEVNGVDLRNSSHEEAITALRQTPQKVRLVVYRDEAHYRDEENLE

[4] = target: MAGI1_1, Q96QZ7
Sequence of MAGI1_1, Q96QZ7 (Q96QZ7 1-106): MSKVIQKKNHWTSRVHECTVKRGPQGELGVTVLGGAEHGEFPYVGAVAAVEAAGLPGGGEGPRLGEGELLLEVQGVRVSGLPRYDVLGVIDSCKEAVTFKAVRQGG

[5] = target: T3, DFNB31_2, Q9P202
[6] = target: T4, MPDZ_10, O75970
[7] = target: T5, GRIP1_7, Q9Y3R0
[8] = target: Inadl_10, Q8NI35
Sequence of Inadl_10, Q8NI35 (Q8NI35 1673-1763): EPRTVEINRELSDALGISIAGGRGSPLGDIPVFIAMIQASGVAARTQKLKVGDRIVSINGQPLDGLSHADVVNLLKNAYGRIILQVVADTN

[9] = target: T6, TX1BP3, O14907
[10] = target: Inadl_5, Q8NI35
Sequence of Inadl_5, Q8NI35 (Q8NI35 673-780): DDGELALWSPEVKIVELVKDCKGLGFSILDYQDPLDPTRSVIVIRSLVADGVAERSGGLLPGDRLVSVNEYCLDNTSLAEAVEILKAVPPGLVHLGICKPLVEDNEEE

[11] = target: Inadl_9, Q8NI35
Sequence of Inadl_9, Q8NI35 (Q8NI35 1530-1615): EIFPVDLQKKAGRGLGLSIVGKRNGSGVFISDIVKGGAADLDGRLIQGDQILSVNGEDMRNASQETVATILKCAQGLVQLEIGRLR

[12] = target: T7, HTRA4, P83105
[13] = target: IL16_3, Q14005
Sequence of IL16_3, Q14005 (Q14005 1107-1207): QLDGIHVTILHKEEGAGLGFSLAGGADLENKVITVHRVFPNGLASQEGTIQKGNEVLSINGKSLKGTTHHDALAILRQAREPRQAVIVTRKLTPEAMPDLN

[14] = target: TJP2_1, Q9UDY2
Sequence of TJP2_1, Q9UDY2 (Q9UDY2 24-128): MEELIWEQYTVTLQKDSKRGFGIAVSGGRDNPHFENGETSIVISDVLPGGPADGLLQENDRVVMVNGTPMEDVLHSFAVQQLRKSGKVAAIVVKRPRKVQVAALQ

[15] = target: T8, APBA2_2, Q99767
[16] = target: T9, MPP2, Q14168
[17] = target: LNX1_3, Q8TBB1
Sequence of LNX1_3, Q8TBB1 (Q8TBB1 500-596): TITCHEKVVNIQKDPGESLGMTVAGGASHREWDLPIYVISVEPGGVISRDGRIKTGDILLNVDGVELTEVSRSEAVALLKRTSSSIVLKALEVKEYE

[18] = target: T10, RADIL, Q96JH8
[19] = target: T11, LNX2_2, Q8N448
[20] = target: ARHGEF12, Q9NZN5-2
Sequence of ARHGEF12, Q9NZN5-2 (Q9NZN5 other isoform, or with tags, fused parts or gaps): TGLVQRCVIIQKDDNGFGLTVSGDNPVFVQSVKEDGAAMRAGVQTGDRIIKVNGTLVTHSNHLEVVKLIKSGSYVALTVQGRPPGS

[21] = target: MAGI3_2, Q5TCQ9
Sequence of MAGI3_2, Q5TCQ9 (Q5TCQ9 398-503): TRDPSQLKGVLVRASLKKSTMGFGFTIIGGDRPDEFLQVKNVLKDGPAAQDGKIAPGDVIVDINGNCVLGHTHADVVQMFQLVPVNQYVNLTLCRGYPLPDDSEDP

[22] = target: FRMPD2_3, Q68DX3
Sequence of FRMPD2_3, Q68DX3 (Q68DX3 1073-1166): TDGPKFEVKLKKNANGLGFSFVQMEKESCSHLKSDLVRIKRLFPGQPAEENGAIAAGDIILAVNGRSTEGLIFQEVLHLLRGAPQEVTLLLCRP

[23] = target: T12, NHERF3_4, Q5T2W1
[24] = target: TJP1_2, Q07157
Sequence of TJP1_2, Q07157 (Q07157 181-274): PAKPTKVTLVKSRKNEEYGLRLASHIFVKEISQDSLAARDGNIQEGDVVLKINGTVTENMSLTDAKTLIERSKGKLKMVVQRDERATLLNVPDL

[25] = target: MAGI1_2, Q96QZ7
Sequence of MAGI1_2, Q96QZ7 (Q96QZ7 456-580): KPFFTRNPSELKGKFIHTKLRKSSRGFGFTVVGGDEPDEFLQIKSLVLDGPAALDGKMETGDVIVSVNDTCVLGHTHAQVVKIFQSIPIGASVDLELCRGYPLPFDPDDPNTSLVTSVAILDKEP

[26] = target: FRMPD2_2, Q68DX3
Sequence of FRMPD2_2, Q68DX3 (Q68DX3 944-1038): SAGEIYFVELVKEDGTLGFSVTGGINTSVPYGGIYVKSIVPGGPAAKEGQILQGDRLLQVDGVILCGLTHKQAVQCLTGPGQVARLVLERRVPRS

Row | Binder | pKd [1] | pKd [2] | pKd [3] | pKd [4] | pKd [5] | pKd [6] | pKd [7] | pKd [8] | pKd [9] | pKd [10] | pKd [11] | pKd [12] | pKd [13] | pKd [14] | pKd [15] | pKd [16] | pKd [17] | pKd [18] | pKd [19] | pKd [20] | other results
1 | EFKQTSSFLV [JAM1, Q9Y624] | below the threshold | below the threshold | below the threshold | 3.49 | below the threshold | below the threshold | below the threshold | below the threshold | below the threshold | 3.53 | 3.86 | 4.05 | below the threshold | below the threshold | below the threshold | below the threshold | below the threshold | 4.62 | 5.22 | below the threshold | pKd [21]: below the threshold; pKd [22]: below the threshold; pKd [23]: 3.51; pKd [24]: 4.01; pKd [25]: below the threshold; pKd [26]: below the threshold
2 | SQPLLVHDDV [KIT, P10721] | below the threshold | below the threshold | 4.94 | below the threshold | below the threshold | 3.93 | below the threshold | below the threshold | below the threshold | below the threshold | below the threshold | 3.88 | below the threshold | below the threshold | below the threshold | below the threshold | below the threshold | below the threshold | below the threshold | below the threshold | pKd [21]: below the threshold; pKd [22]: below the threshold; pKd [23]: below the threshold; pKd [24]: 3.5; pKd [25]: below the threshold; pKd [26]: below the threshold
3 | KLQNPNQSVV [TYRP1, P17643] | below the threshold | below the threshold | 3.97 | below the threshold | below the threshold | 3.54 | below the threshold | below the threshold | below the threshold | below the threshold | below the threshold | 3.94 | below the threshold | below the threshold | below the threshold | below the threshold | below the threshold | 4.05 | 4.32 | 3.92 | pKd [21]: 4.46; pKd [22]: below the threshold; pKd [23]: below the threshold; pKd [24]: below the threshold; pKd [25]: below the threshold; pKd [26]: below the threshold

More lines, main results first:

Row | pKd [1] | pKd [2] | pKd [3] | pKd [4] | pKd [5] | pKd [6] | pKd [7] | pKd [8] | pKd [9] | pKd [10] | pKd [11] | pKd [12] | pKd [13] | pKd [14] | pKd [15] | pKd [16] | pKd [17] | pKd [18] | pKd [19] | pKd [20] | Binder | other results
4 | below the threshold | below the threshold | below the threshold | below the threshold | below the threshold | below the threshold | below the threshold | below the threshold | below the threshold | below the threshold | below the threshold | below the threshold | below the threshold | below the threshold | below the threshold | below the threshold | below the threshold | below the threshold | 3.58 | 4.15 | QRYPGNQTTC [CCL24, O00175] | pKd [21]: below the threshold; pKd [22]: below the threshold; pKd [23]: below the threshold; pKd [24]: below the threshold; pKd [25]: below the threshold; pKd [26]: below the threshold
5 | below the threshold | below the threshold | below the threshold | below the threshold | below the threshold | below the threshold | below the threshold | below the threshold | below the threshold | below the threshold | 3.71 | below the threshold | below the threshold | 4.28 | below the threshold | below the threshold | below the threshold | 4.07 | below the threshold | below the threshold | PKSNSSKEYV [CLDN7, O95471] | pKd [21]: below the threshold; pKd [22]: below the threshold; pKd [23]: below the threshold; pKd [24]: below the threshold; pKd [25]: below the threshold; pKd [26]: below the threshold
